Consider 25 molecules from patent US20100021473A1 (DOMANTIS, published 2010).

Numbering of substitutions follows the chain as printed.

In experiment [1] the target is T1, CD56 immobilised on Biacore CM5 chip (UniProt P13591 20-718, limits assumed).
T1 construct: also called DOM14
The experiment in a line: Biacore, CD56 immobilised. On the procedure: (§1) Anti-CD38, anti-CEA and anti-CD56 dAbs that were identified as FACS positive clones were in addition analysed by Biacore using the following procedure. The CM5 chip surface was activated by flushing 1:1 EDC/NHS (0.4M1-ethyl-3-(3-dimenthylaminopropyl)-carbodiimide in water; 0.1 M N-hydroxysuccinimide in water) at a flow rate of 5 uL/min for 10 minute contact time. CD38 was immobilised at 500 nM in Acetate buffer pH4 at 5 uL/min this was repeated until the RUs reached between 500 and 1000 (low density). CEA and CD56 were coupled in acetate buffer pH 4.5. Any excess reactive groups were deactivated by running 1M ethanolamine-HCl over the CM5 chip (again 5 uL/min for 7 mins). The affinities of the anti-CD38, anti-CEA and anti-CD56 dAbs were measured on the biacore as described above.
For orientation: Surface plasmon resonance follows binding to a sensor surface in real time, without labels.

The target of another experiment is T2, NCA on H647 cells (UniProt P40199 35-320, limits assumed).
T2 construct: whole, on cells; Its identity is an inference
T2 sequence (looked up): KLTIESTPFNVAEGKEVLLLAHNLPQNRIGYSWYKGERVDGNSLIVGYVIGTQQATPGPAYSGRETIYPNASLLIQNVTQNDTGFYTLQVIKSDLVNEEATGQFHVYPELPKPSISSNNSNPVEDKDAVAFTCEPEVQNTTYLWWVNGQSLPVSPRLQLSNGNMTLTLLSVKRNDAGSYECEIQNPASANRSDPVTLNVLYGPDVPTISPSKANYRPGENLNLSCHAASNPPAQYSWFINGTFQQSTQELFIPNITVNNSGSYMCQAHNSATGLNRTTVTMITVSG
Description: FACS on H647 cells (CEA-/NCA+). As for the experimental part: (§2) All dAbs were analysed by FACS on antigen positive and negative cell lines using the following method.
(§3) The determination of cell binding by FACS was carried out as follows: cells were centrifuged at 250 g for 5 minutes and the growth medium was removed. The cells were resuspended in FACS incubation buffer at 4° C. at a density of 2×10⁶ cells/ml. The cells were blocked by incubating for 15 minutes at 4° C. in FACS incubation buffer. Fifty microliters of 2× stock of primary antibody (anti-CD38 FITC, anti-CD138 FITC or mIgG1 FITC conjugated isotype control (all BD Biosciences) was added; or dAb was added to cells in FACS incubation buffer and incubated for 30-60 minutes at 4° C. The cells were then washed once in FACS incubation buffer. One hundred microliters of secondary antibody (rabbit anti-Vk) was added to cells in FACS incubation buffer and incubated 30-60 minutes at 4° C. The cells were washed once in FACS incubation buffer. Then 100 ul of 1× tertiary antibody was added to the cells in FACS incubation buffer and incubated for 30-60 mins at 4° C. (for dAbs the tertiary antibody is anti-rabbit FITC (Sigma)). The cells were washed twice in FACS incubation buffer. The cell pellet was resuspend in 200 ul FACS incubation buffer+viable cell marker (BD Viaprobe). The cells were then analyzed by flow cytometry.

The target of experiment [2] is T3, CD38 immobilised on Biacore CM5 chip (UniProt P28907 43-300, limits assumed).
T3 construct: also called DOM11
Description: Biacore, CD38 immobilised. As for the experimental part:
as §1
Affinity maturation libraries were created for the anti-CD38 dAbs DOM11-3 and DOM11-30 by error prone PCR. […] Initial screening was carried out by BIAcore (as described previously) and subsequently by FACS.

For another experiment, the target named is T4, CD38 on cells (UniProt P28907 1-300).
T4 construct: whole, on cells; Endogenous CD38 on cell lines used in FACS or microscopy; also called DOM11; T10
The experiment in a line: FACS on RPMI cells (CD38+/138+). As for the experimental part: as §2, §3

Experiment [3] concerns the target T5, CD38 and CD138 co-expressed on cells (CD38+/CD138+ double positive cells) (UniProt P28907 1-300; P18827 23-310).
T5 construct: whole, on cells; Two separate membrane proteins on the same cell, not a complex; also called RPMI8226; OPM2
Description: FACS cell binding titration on OPM2 cells (CD38+/CD138+), arithmetic mean fluorescence. The table prints no unit; the unit is taken from the x axis 'log conc in nm' (nanomolar). On the procedure: as §3
Anti-CD38 and anti-CD138 affinity matured dAbs were paired to create dual specific ligands by cloning an anti-CD38 dAb and an anti-CD138 dAb into a dual expression vector. To determine if the increased affinity of the monomers was reflected in increased binding affinity of the dual specific ligand, a range of the affinity matured anti-CD38 dAbs were paired with the anti-CD138 dAb DOM12-45, a range of affinity matured anti-CD138 dAbs were paired with anti-CD38 dAbs, and a range of affinity matured anti-CD38 dAbs and affinity matured anti-CD138 dAbs were paired. All dual specific ligands were expressed in E. coli and purified using protein L agarose followed by Resource S cation exchange chromatography when required. The binding affinity of the dual specific ligands was assessed by FACS as described previously. In this study, a range of concentrations was used to allow determination of EC50.

B1: DOM14-23 (other)
chain: DIQMTQSPSSLSASVGDRVTITCRASQDIFPFLNWYQQKPGKAPELLIYRASILHSGVPSRFSGSGSGTDFTLTISSLQPEDFATYYCQQIARSPRTFGQGTKVEIKR
notes: Anti-CD56 dAb
With B1, the Kd (usually the concentration at which binding is half-saturated) in experiment [1] was 100 to 200 nM.

B2: DOM14-70 (other)
chain: DIQMTQSPSSLSASVGDRVTITCRASQEIGQWLNWYQQKPGKAPKLLIYWGSELQSGVPSRFSGSGSGTDFTLTISSLQPEDFATYYCQQVSRNPFTFGQGTKVEIKR
notes: Anti-CD56 dAb monomer
Molecule B2 showed a Kd in experiment [1] of 500 to 800 nM.

B3: DOM14-57 (other)
chain: B2 chain with E28Q, G30D, Q31D, W32Y, G51T, E53L, V91S, S92A, R93H, N94R
notes: Anti-CD56 dAb monomer
As for B3, the binding result in experiment [1] is “no binding”.

B4: DOM13-93 (other)
chain: DIQMTQSPSSLSASVGDRVTITCRASQDIGNMLAWYQQKPGKAPKPLIYYASYLQSGVPSRFSGSGSGTDFTLTISSLQPEDFATYYCQQMRDYPVTFGQGTKVEIKR
notes: Anti-CEA dAb monomer
As to B4, the binding result with NCA on H647 cells was “no binding”.

B5: DOM13-95 (other)
chain: B4 chain with T5S, M91L, R92G, D93A, Y94K, V96H
notes: Anti-CEA dAb monomer
With B5, the binding result with NCA on H647 cells is given as “no binding”.

B6: DOM13-58 (other)
chain: B4 chain with D28G, M32S, A34R, P46L, A51S, Y53H, M91I, D93T, Y94K, V96F
notes: Anti-CEA dAb monomer
As for B6, the binding result in the experiment with NCA on H647 cells is recorded as “no binding”.

B7: DOM11-30-2 (other)
chain: DIQMTQSPSSLSASVGDRVTITCRTSQKIENDLAWYQQKPGKAPKLLIYYTSILQSGVPSRFSGSGSGTDFTLTISSLQPEDFATYYCQQRRYVPATFGQGTKVEIKR
Take B7: the Kd in experiment [2] was in the range of 62 to 76 nM.

B8: DOM11-30-3 (other)
chain: B7 chain with T25A, K42N, Q55H
On to B8, for which the Kd in experiment [2] lay in the range of 86 to 93 nM.

B9: DOM11-30-1 (other)
chain: B7 chain with T25A, Q27L, V94A
As to B9, binding in experiment [2] was characterised by a dissociation constant (Kd) of 19 nM.

B10: DOM13-57 (other)
chain: DIQMTQSPSSLSASVGDRVTITCRASQGIMYHLRWYQQKPGKAPRLLIYHGSTLQSGVPARFSGSGSGTDFTLTISSLQPEDFATYYCQQTWNAPLTFGQGTKVEIKR
notes: Anti-CEA dAb monomer
For the molecule B10, the binding result in the experiment with NCA on H647 cells was “no binding”.

B11: DOM11-39 (other)
chain: DIQMTQSPSSLSASVGDRVTITCRASQPIDGNLRWYQQKPGKAPRLLIYFTSILQSGVPSRFSGSGSGTDFTLTISSLQPEDFATYYCQQHRHWPATFGQGTKVEIKR
For the molecule B11, in the experiment with CD38 on cells, the binding result is reported as “binds”.

B12: DOM11-37 (other)
chain: DIQMTQSPSSLSAFVGDRVTITCRASQDIEGQLRWYQQKPGKAPKLLIYFGSLLQSGVPSRFSGSGSGTVYTLTISSLQPEDFATYYCQQSHLFPATFGQGTKVEIKR
notes: Anti-CD38 dAb monomer
Consider B12, for which the binding result with CD38 on cells is on record as “binds”.

B13: DOM14-63 (other)
chain: DIQMTQSPSSLSASVGDRVTITCRASQNISRGLRWYQQKPGKAPKLLIYHASKLQSGVPSRFSGSGSGTDFTLTISSLQPEDFATYYCQQYKVFPGTFGQGTKVEIKR
notes: Anti-CD56 dAb monomer
With B13, the Kd in experiment [1] turned out to be 100 nM.

B14: DOM11-24 (other)
chain: DIQMTQSPSSLSASVGDRVTITCRASQEIHDYLSWYQQKPGKAPKLLIYLSSRLQSGVPSRFSGSGSGTDFTLTISSLQPEDFATYYCQQYHKGPYTFGQGTKVEIKR
notes: Anti-CD38 dAb monomer
Regarding B14, in the experiment with CD38 on cells, the binding result is given as “binds”.

B15: DOM14-68 (other)
chain: B14 chain with H30S, D31G, Y32E, S34T, L50F, R53I, Y91R, H92K, K93L, G94R
notes: Anti-CD56 dAb monomer
As to B15, in experiment [1], the binding result is on record as “no binding”.

B16: DOM11-32 (other)
chain: DIQMTQSPSSLSASVGDRVTITCRASQWIGDSLVWYQQKPGKAPKLLIYFGSILQSGVPSRFSGSGSGTDFTLTISSLQPEDFATYYCQQHKTSPSTFGQGTKVEIKR
notes: Anti-CD38 dAb monomer
Consider B16, for which the binding result with CD38 on cells was “binds”.

B17: DOM 11-3-1/DOM 12-45-2 (bispecific antibody, V domains shown)
V domain 1: DIQMTQSPSSLSASVGDRVTITCRASHNIDSRLSWYQQKPGKAPKLLIYRASVLQSGVPSRFRGSGSGTDFTLTISSLQPEDFATYYCQQWDMFPLSFGQGTKVEIKR
V domain 2: DIQMTQSPSSLSASVGDRVTITCRASQDIGGRLRWYQQKPGKAPKLLIYHGSRLDSGVPSRFSGSRSGADFTLTISSLQPEDFATYYCQQQWYRPYTFGQGTKVEIKR
As for B17, the EC50 – broadly, the concentration at which the effect is half-maximal – in experiment [3] amounted to 13.8 nM.

B18: DOM 11-3-15/DOM 12-45-2 (bispecific antibody, V domains shown)
V domain 1: B17 V domain 1 with H27Q, R63S, S65T
V domain 2: B17 V domain 2
As to B18, the EC50 in experiment [3] was 16.7 nM.

B19: DOM 11-3-20/DOM 12-45-2 (bispecific antibody, V domains shown)
V domain 1: B17 V domain 1 with M4T, H27Q, A51S, R63S, S97M
V domain 2: B17 V domain 2
In experiment [3], B19 had an EC50 of 11.9 nM.

B20: DOM11-3-1 (other)
chain: B17 V domain 1
In experiment [2], B20 returned a Kd of 62 nM.

B21: DOM11-3-2 (other)
chain: B17 V domain 1 with H27Q, A51T, R63S, S97M
As for B21, in experiment [2], the Kd lay within 130 to 160 nM.

B22: DOM11-38 (other)
chain: DIQVTQSPSSLSASVGDRVTITCRASQEISSCLNWYQQKPGKAPKLLIYCTSVLQSGVPSRFSGSGSGTDFTLTISSLQPEDFATYYCQQRFGNPLTFGQGTKVEIKR
notes: Anti-CD38 dAb monomer
As to B22, the binding result with CD38 on cells is reported as “binds”.

B23: DOM13-65 (other)
chain: DIQMTQSPSSLSASVGDRVTITCRASQSIGMLLSWYQQKPGKAPKLLIYAVSRLQSGVPSRFSGSGSGTDFTLTISSLQPEDYATYYCQQMQRPPITFGQGTKVEIKR
notes: Anti-CEA dAb monomer
Take B23: in the experiment with NCA on H647 cells, the binding result is given as “no binding”.

B24: DOM13-64 (other)
chain: B23 chain with M31T, S34N, V51S, Y83F, Q92N, P94V
notes: Anti-CEA dAb monomer
Take B24: the binding result with NCA on H647 cells is “no binding”.

B25: DOM14-62 (other)
chain: DIQMTQSPSSLSASVGDRVTITCRASQNISYHLVWYQQKPGKAPKLLIYSSSNLQSGVPSRFSGSGSGTDFTLTISSLQPEDLATYYCQQLASWPHTLGQGTKVEIKR
notes: Anti-CD56 dAb monomer
Consider B25, for which the binding result in experiment [1] is reported as “no binding”.
